Measured values reported in IntAct's records for PubMed 19219046.

B1: ATP-dependent RNA helicase DDX19B (Homo sapiens), Q9UMR2-1 (parent)
chain: MATDSWALAVDEQEAAAESLSNLHLKEEKIKPDTNGAVVKTNANAEKTDEEEKEDRAAQSLLNKLIRSNLVDNTNQVEVLQRDPNSPLYSVKSFEELRLKPQLLQGVYAMGFNRPSKIQENALPLMLAEPPQNLIAQSQSGTGKTAAFVLAMLSQVEPANKYPQCLCLSPTYELALQTGKVIEQMGKFYPELKLAYAVRGNKLERGQKISEQIVIGTPGTVLDWCSKLKFIDPKKIKVFVLDEADVMIATQGHQDQSIRIQRMLPRNCQMLLFSATFEDSVWKFAQKVVPDPNVIKLKREEETLDTIKQYYVLCSSRDEKFQALCNLYGAITIAQAMIFCHTRKTASWLAAELSKEGHQVALLSGEMMVEQRAAVIERFREGKEKVLVTTNVCARGIDVEQVSVVINFDLPVDKDGNPDNETYLHRIGRTGRFGKRGLAVNMVDSKHSMNILNRIQEHFNKKIERLDTDDLDEIEKIAN

Variants of: B1
Details: with NUP214, P35658-1
NUP214, P35658-1, sequence (P35658 whole entry): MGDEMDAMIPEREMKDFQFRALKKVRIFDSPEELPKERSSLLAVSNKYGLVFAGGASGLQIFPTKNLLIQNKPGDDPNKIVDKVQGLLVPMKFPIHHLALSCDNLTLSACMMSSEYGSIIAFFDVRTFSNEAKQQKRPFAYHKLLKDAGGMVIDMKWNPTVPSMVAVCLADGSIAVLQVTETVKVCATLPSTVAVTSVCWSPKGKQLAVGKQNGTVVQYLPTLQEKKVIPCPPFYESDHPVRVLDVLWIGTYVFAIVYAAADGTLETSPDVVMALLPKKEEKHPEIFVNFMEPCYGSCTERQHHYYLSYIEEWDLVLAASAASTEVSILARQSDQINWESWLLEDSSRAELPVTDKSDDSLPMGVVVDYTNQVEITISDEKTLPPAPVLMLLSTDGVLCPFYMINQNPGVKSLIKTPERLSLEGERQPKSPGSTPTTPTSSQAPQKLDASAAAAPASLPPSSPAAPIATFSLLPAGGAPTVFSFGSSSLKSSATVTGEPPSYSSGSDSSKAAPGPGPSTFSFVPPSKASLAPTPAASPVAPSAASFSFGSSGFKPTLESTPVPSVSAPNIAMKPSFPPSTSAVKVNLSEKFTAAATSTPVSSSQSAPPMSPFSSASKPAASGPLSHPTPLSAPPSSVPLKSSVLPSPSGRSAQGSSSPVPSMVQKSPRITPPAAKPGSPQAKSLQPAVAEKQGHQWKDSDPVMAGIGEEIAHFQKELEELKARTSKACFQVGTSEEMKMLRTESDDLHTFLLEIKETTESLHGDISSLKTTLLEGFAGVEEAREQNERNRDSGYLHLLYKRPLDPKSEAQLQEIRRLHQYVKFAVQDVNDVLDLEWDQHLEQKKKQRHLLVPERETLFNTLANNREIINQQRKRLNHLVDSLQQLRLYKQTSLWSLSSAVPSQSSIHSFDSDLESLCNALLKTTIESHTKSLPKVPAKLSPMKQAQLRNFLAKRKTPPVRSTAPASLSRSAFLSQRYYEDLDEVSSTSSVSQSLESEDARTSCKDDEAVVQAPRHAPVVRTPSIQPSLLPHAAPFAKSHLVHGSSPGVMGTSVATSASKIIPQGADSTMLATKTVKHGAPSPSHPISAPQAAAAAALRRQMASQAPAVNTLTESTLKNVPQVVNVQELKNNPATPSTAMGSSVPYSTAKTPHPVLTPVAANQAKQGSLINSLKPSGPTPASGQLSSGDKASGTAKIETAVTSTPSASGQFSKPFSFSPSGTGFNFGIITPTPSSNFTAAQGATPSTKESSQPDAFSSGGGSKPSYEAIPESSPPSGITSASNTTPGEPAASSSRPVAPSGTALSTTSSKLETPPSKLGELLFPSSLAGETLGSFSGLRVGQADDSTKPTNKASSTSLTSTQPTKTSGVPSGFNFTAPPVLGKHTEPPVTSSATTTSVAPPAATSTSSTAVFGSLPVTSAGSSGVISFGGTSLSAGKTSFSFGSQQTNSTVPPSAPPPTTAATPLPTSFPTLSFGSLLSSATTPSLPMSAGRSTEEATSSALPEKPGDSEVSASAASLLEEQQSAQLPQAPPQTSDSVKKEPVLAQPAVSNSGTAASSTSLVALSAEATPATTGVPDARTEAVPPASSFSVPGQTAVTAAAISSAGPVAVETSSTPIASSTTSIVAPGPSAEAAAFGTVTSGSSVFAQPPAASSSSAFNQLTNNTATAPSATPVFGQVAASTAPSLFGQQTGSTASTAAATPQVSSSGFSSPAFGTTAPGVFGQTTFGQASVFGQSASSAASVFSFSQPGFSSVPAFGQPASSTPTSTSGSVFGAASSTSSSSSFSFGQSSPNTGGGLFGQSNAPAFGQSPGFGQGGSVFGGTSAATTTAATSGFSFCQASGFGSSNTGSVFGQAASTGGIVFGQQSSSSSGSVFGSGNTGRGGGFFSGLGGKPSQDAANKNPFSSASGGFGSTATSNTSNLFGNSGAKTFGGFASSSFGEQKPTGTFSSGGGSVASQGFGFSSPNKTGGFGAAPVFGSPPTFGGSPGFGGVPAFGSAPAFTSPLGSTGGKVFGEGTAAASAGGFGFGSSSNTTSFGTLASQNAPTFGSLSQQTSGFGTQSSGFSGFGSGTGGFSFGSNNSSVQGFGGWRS

Effect of a mutation on the interaction, disrupting interaction:
MATDSWALAVDEQEAAAESLSNLHLKEEKIKPDTNGAVVKTNANAEKTDEEEKEDRAAQSLLNKLIRSNLVDNTNQVEVLQRDPNSPLYSVKSFEELRLKPQLLQGVYAMGFNRPSKIQENALPLMLAEPPQNLIAQSQSGTGKTAAFVLAMLSQVEPANKYPQCLCLSPTYELALQTGKVIEQMGKFYPELKLAYAVRGNKLERGQKISEQIVIGTPGTVLDWCSKLKFIDPKKIKVFVLDEADVMIATQGHQDQSIRIQAMLPRNCQMLLFSATFEDSVWKFAQKVVPDPNVIKLKREEETLDTIKQYYVLCSSRDEKFQALCNLYGAITIAQAMIFCHTRKTASWLAAELSKEGHQVALLSGEMMVEQRAAVIERFREGKEKVLVTTNVCARGIDVEQVSVVINFDLPVDKDGNPDNETYLHRIGRTGRFGKRGLAVNMVDSKHSMNILNRIQEHFNKKIERLDTDDLDEIEKIAN [R262A]
MATDSWALAVDEQEAAAESLSNLHLKEEKIKPDTNGAVVKTNANAEKTDEEEKEDRAAQSLLNKLIRSNLVDNTNQVEVLQRDPNSPLYSVKSFEELRLKPQLLQGVYAMGFNRPSKIQENALPLMLAEPPQNLIAQSQSGTGKTAAFVLAMLSQVEPANKYPQCLCLSPTYELALQTGKVIEQMGKFYPELKLAYAVRGNKLERGQKISEQIVIGTPGTVLRWCSKLKFIDPKKIKVFVLDEADVMIATQGHQDQSIRIQRMLPRNCQMLLFSATFEDSVWKFAQKVVPDPNVIKLKREEETLDTIKQYYVLCSSRDEKFQALCNLYGAITIAQAMIFCHTRKTASWLAAELSKEGHQVALLSGEMMVEQRAAVIERFREGKEKVLVTTNVCARGIDVEQVSVVINFDLPVDKDGNPDNETYLHRIGRTGRFGKRGLAVNMVDSKHSMNILNRIQEHFNKKIERLDTDDLDEIEKIAN [D223R]
MATDSWALAVDEQEAAAESLSNLHLKEEKIKPDTNGAVVKTNANAEKTDEEEKEDRAAQSLLNKLIRSNLVDNTNQVEVLQRDPNSPLYSVKSFEELRLKPQLLQGVYAMGFNRPSKIQENALPLMLAEPPQNLIAQSQSGTGKTAAFVLAMLSQVEPANKYPQCLCLSPTYELALQTGKVIEQMGKFYPELKLAYAVRGNKLERGQKISEQIVIGTPGTVLDWCSKLKFIDPKKIKVFVLDEADVMIATQGHQDQSARIQRMLPRNCQMLLFSATFEDSVWKFAQKVVPDPNVIKLKREEETLDTIKQYYVLCSSRDEKFQALCNLYGAITIAQAMIFCHTRKTASWLAAELSKEGHQVALLSGEMMVEQRAAVIERFREGKEKVLVTTNVCARGIDVEQVSVVINFDLPVDKDGNPDNETYLHRIGRTGRFGKRGLAVNMVDSKHSMNILNRIQEHFNKKIERLDTDDLDEIEKIAN [I258A]
MATDSWALAVDEQEAAAESLSNLHLKEEKIKPDTNGAVVKTNANAEKTDEEEKEDRAAQSLLNKLIRSNLVDNTNQVEVLQRDPNSPLYSVKSFEELRLKPQLLQGVYAMGFNRPSKIQENALPLMLAEPPQNLIAQSQSGTGKTAAFVLAMLSQVEPANKYPQCLCLSPTYELALQTGKVIEQMGKFYPELKLAYAVRGNKLERGQKISEQIVIGTPGTVLDWCSKLKFIDPKKIKVFVLDEADVMIATQGHQDQSIDIQRMLPRNCQMLLFSATFEDSVWKFAQKVVPDPNVIKLKREEETLDTIKQYYVLCSSRDEKFQALCNLYGAITIAQAMIFCHTRKTASWLAAELSKEGHQVALLSGEMMVEQRAAVIERFREGKEKVLVTTNVCARGIDVEQVSVVINFDLPVDKDGNPDNETYLHRIGRTGRFGKRGLAVNMVDSKHSMNILNRIQEHFNKKIERLDTDDLDEIEKIAN [R259D]
